Experiments:
[1] = target: GST-tagged human FcRn-β2m (human) (UniProt P55899); assay: ELISA, antibody immobilized, FcRn titrated (the concentration is that of FcRn), anti-FLAG-HRP, pH 6.0 [pH 6.0]
[2] = target: human FcγRIIIa F158 ectodomain, N-terminal AVI and C-terminal His tags (human) (UniProt P08637); assay: BLI, antibody on FAB2G tips, FcγRIIIa F158 in solution, pH 7.4, steady-state Kd,SS (Langmuir fit)
[3] = target: human FcγRIIb ectodomain, N-terminal AVI and C-terminal His tags (human) (UniProt P31994); assay: BLI, antibody on FAB2G tips, FcγRIIb in solution, pH 7.4, steady-state Kd,SS
[4] = target: human FcγRIIa R131 ectodomain, N-terminal AVI and C-terminal His tags (human) (UniProt P12318); assay: BLI, antibody on FAB2G tips, FcγRIIa R131 in solution, pH 7.4, steady-state Kd,SS
[5] = target: human FcγRIIb ectodomain, N-terminal AVI and C-terminal His tags (human) (UniProt P31994); assay: BLI, antibody on FAB2G tips, FcγRIIb in solution, pH 6.5, steady-state Kd,SS
[6] = target: human FcγRIIIa F158 ectodomain, N-terminal AVI and C-terminal His tags (human) (UniProt P08637); assay: BLI, antibody on FAB2G tips, FcγRIIIa F158 in solution, pH 6.5, steady-state Kd,SS (Langmuir fit)
[7] = target: human FcγRIIa H131 ectodomain, N-terminal AVI and C-terminal His tags (human) (UniProt P12318); assay: BLI, antibody on FAB2G tips, FcγRIIa H131 in solution, pH 6.5, steady-state Kd,SS
[8] = target: human FcγRIIIa F158 ectodomain, N-terminal AVI and C-terminal His tags (human) (UniProt P08637); assay: BLI, antibody on FAB2G tips, FcγRIIIa F158 in solution, pH 7.4, kinetic Kd
[9] = target: FcγRIIIa allele V158 on NK-92 effector cells (human) (UniProt P08637); assay: cell-based or functional assay
[10] = target: human FcγRIIa H131 ectodomain, N-terminal AVI and C-terminal His tags (human) (UniProt P12318); assay: BLI, antibody on FAB2G tips, FcγRIIa H131 in solution, pH 7.4, steady-state Kd,SS
[11] = target: human FcγRIIa R131 ectodomain, N-terminal AVI and C-terminal His tags (human) (UniProt P12318); assay: BLI, antibody on FAB2G tips, FcγRIIa R131 in solution, pH 6.5, steady-state Kd,SS
[12] = target: human FcγRIIIa F158 ectodomain, N-terminal AVI and C-terminal His tags (human) (UniProt P08637); assay: BLI, antibody on FAB2G tips, FcγRIIIa F158 in solution, pH 6.5, kinetic Kd

Chain of human FcγRIIIa F158 ectodomain, N-terminal AVI and C-terminal His tags (human) (P08637 17-208): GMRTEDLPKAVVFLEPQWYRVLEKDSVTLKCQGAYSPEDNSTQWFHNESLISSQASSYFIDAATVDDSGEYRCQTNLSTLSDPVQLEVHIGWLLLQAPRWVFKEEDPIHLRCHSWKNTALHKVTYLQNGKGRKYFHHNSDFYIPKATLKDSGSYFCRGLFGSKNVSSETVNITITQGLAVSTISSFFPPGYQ
Chain of FcγRIIIa allele V158 on NK-92 effector cells (human) (P08637 17-254 F176V): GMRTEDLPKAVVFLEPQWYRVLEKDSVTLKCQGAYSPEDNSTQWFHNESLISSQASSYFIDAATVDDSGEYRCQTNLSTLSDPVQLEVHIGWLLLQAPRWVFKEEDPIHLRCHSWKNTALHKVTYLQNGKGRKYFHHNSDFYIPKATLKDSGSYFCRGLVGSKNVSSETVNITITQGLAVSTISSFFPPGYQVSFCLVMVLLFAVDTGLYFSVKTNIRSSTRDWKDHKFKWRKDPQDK
Chain of human FcγRIIb ectodomain, N-terminal AVI and C-terminal His tags (human) (P31994 43-217): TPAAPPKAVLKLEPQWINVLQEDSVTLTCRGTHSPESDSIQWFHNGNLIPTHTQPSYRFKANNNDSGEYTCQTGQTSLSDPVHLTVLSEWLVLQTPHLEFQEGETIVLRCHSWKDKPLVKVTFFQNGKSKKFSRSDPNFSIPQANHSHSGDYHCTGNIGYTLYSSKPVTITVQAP
Chain of human FcγRIIa R131 ectodomain, N-terminal AVI and C-terminal His tags (human) (P12318 34-217 H167R): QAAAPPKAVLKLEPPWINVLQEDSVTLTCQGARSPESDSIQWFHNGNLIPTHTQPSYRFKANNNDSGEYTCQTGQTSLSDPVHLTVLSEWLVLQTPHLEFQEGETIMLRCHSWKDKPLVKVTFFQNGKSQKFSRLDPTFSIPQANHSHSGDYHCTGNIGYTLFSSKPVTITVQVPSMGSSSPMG
Chain of human FcγRIIa H131 ectodomain, N-terminal AVI and C-terminal His tags (human) (P12318 34-217): as the sequence (P12318 34-217 H167R) above, with R134H counted along it
Chain of GST-tagged human FcRn-β2m (human) (P55899 24-297 limits assumed, chain 1 of 2): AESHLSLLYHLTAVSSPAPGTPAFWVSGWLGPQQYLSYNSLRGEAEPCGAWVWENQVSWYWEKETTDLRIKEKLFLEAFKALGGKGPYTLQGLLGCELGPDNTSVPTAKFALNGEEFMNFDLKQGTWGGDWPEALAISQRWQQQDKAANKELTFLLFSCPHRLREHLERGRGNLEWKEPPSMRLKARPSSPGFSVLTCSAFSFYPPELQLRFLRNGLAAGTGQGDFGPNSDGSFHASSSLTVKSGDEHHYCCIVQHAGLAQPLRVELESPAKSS
Chain of GST-tagged human FcRn-β2m (human) (P61769 21-119 limits assumed, chain 2 of 2, further chain): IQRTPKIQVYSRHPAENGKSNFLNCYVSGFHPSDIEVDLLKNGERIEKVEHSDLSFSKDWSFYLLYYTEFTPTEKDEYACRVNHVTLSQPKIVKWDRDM

| Substance | EC50 (read off the curve) [1] [µg/mL] | Kd [2] [nM] | Kd [3] [nM] | Kd [4] [nM] | Kd [5] [nM] | Kd [6] [nM] | Kd [7] [nM] | Kd [8] [nM] | ADCC EC50, SKBR3 target cells, NK-92 (V158) effector cells, pH 6.5 [9] [ng/mL] | ADCC EC50, SKBR3 target cells, NK-92 (V158) effector cells, pH 7.4 [9] [ng/mL] | ADCC: lysis of calcein-loaded SKOV3 target cells, 50 ng/mL antibody, E:T 10:1, 4 h, pH 6.5 [9] [%] | ADCC: lysis of calcein-loaded SKOV3 target cells, 50 ng/mL antibody, E:T 10:1, 4 h, pH 7.4 [9] [%] | Kd [10] [nM] | Kd [11] [nM] | Kd [12] [nM] |
| --- | --- | --- | --- | --- | --- | --- | --- | --- | --- | --- | --- | --- | --- | --- | --- |
| hu4D5 antibody with M252Y/S254T/T256E (YTE) Fc | 0.01 |  |  |  |  |  |  |  |  |  |  |  |  |  |  |
| hu4D5 antibody with acid-Fc (S267E, H268D, Y296H) |  | 1090 | 109 | 37.1 | 112 | 603 | 331 | 909 | 121 | 2310 | 47.6 | 19.5 | 497 | 37.1 | 538 |

Source: patent publication US20250188186A1
